Consider 3 sequences from US20200002709.

Holding throughout (assay): cell_activity
Data set [1] relates to TaGliadin_T02.1 TALE nuclease pair. Particulars: wheat protoplasts; TABLE 7: 0.00 nuclease only, 2.43 with TREX, 5.33 with 5-azacytidine, 0.00 with trichostatin A.
Data set [2] has as its system TaGliadin_T01.1 TALE nuclease pair. Particulars: wheat protoplasts, nuclease only; 0.325% in TABLE 6; 2.40 with TREX, 1.29 with 5-azacytidine, 0.90 with trichostatin A.
Data set [3] deals with TaGliadin_T03.1 TALE nuclease pair. Particulars: wheat protoplasts; also 0.00 for all treatments in TABLE 7.

With “TCTCATCCTTGCCCTCCTTGCTATCGTGGCGACCACCGCCACAACTGCA (double strand) [TaGliadin_T02.1 target]”, the activity (% mutation frequency) in data set [1] amounted to 0.746.

As to “TTAGAGTTCCAGTGCCACAATTGCAGCCACAAAATCCATCTCAGCAACA (double strand) [TaGliadin_T01.1 target]”, in data set [2], the activity (% mutation frequency) was found to be 1.57.

On to “TCAGCAACAGCCACAAGAGCAAGTTCCATTGGTGCAACAACAACAATTTCCA (double strand) [TaGliadin_T03.1 target]”, for which the activity (% mutation frequency) in data set [3] turned out to be 0.
